For this test, the target named is citrate synthase (CS) from porcine heart (porcine) (UniProt P00889).
Sequence of UniProt P00889 (P00889 28-464): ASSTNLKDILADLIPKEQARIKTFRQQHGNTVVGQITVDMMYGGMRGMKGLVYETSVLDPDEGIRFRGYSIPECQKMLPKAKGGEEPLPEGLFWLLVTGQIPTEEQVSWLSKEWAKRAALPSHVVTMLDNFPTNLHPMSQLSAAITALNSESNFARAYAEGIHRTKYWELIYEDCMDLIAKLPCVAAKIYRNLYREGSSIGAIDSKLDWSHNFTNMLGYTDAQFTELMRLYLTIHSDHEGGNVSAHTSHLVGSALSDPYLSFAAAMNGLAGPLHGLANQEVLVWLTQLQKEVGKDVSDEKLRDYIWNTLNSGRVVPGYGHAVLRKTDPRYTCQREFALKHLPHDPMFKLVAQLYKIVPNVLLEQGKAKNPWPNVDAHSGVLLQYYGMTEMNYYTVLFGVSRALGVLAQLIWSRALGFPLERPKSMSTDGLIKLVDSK

“recombinant ZnJ6 (Cre06.g251716.t1.2) fused to the streptavidin-binding peptide (SBP) tag (natural protein)” showed a citrate synthase thermal aggregation assay (OD360, 42 °C, 1 h): percent of CS kept soluble, ZnJ6:CS 0.1:1 to 10:1 of 86%.

Source of the values: publication PMC7865324.
